# Reference: publication PMC13326754
# What was measured:
# [1] = system: U2AF1beta;U2AF2beta (Fritillaria borealis;Fritillaria borealis); assay: EMSA; details: 330 nM U2AF; never exceeded 5% bound; EMSA: 20 mM Hepes, 0.1 M NaCl, 5% glycerol, 0.5% Tween-20, pH 7.8, 50 ng/ul BSA, 0.5 mM TCEP, 0.5 mM EDTA; 1 h on ice; 6% PAGE 0.5x TBE at 4 C
# [2] = system: U2AF1alpha;U2AF2beta (Fritillaria borealis;Fritillaria borealis); assay: EMSA; details: 330 nM U2AF; never exceeded 5% bound; EMSA: 20 mM Hepes, 0.1 M NaCl, 5% glycerol, 0.5% Tween-20, pH 7.8, 50 ng/ul BSA, 0.5 mM TCEP, 0.5 mM EDTA; 1 h on ice; 6% PAGE 0.5x TBE at 4 C
Sequence,binding signal [1],binding signal [2]
GGGCUGUCCUCUUUUUUUUUUCAGGCGUCU [ORN.PyU],< 5 % bound,< 5 % bound
GGGUCGCUUCUCCCCCCCCCUAGGCGUCU [ORN.PyC],< 5 % bound,< 5 % bound
